# According to the RNAGym collection of RNA variant scans (doi:10.1073/pnas.2313332121):
# B1: TPR t1 (parent)
# chain: GACCAAUCUGCCCUCAGAGCUCGAGAACAUCUUCGGAUGCAGAGGAGGCAGGCUUCGGUGGCGCGAUAGCGCCAACGUCCUCAACCUCCAAUGCAUCCCACCACAUGAUGAUGCCUGAAGAGCCUUGGUUUUUUG
# Variants of: B1
# Experiment: polymerase ribozyme fitness, log enrichment relative to wild type (log ratio); higher = more active; in vitro selection for triplet polymerase activity
# Outline: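 The heterodimeric triplet polymerase ribozyme's subunits were each mutagenized into PCR-built libraries and transcribed. Every library was selected once, in triplicate, by annealing with a biotinylated primer, the partner subunit and triplets, incubating frozen at −7 °C, gel-excising extended constructs, capturing on streptavidin beads and running RT-PCR. Input and output libraries were Illumina-sequenced, with genotypes kept only at ≥10 input reads and ≥1 read per output. Fitness, from inverse-variance-weighted replicate averages, is the base-2 logarithm of genotype enrichment over wild-type enrichment.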
row,Variant,polymerase ribozyme fitness (log ratio)
1,U21C U54C G63C C80A A105C C115U A118C,-7.47
2,C22U C114G C124A U125G,-5.84
3,C22A C70A G122U,-5.4
4,C22G A46C,-3.97
5,C22G G52A G63U U81G G110A,-7.15
6,C22U C98U,-4.36
7,C22A C123A,-4.13
8,U21G C64U,-2.06
9,C22G G61C,-3.76
10,C22G G61U,-2.12
11,C22A G120A,-4.53
12,C22U G44C C56U,-4.25
13,U21C G120U,-0.0201
14,C22A C56A U112C,-2.01
15,C22A G63A C94A A100U C115A,-5.85
16,C22G A26C G110U,-6.02
17,C22G C86A,-3.83
18,C22U G57U,-4.03
19,C22G C53U G57C U78C C104A C124G,-1.59
20,C22U G93C C114A,-6.86
21,C22U G52C,-4.83

row,Variant,polymerase ribozyme fitness (log ratio)
1,C22U G69U C94G,-1.67
2,C22A C56A,-3.44
3,U21C G48U C53A G117A,-1.81
4,U21G U55G U112A,1.42
5,C22U C123A,-3.4
6,C22A A84U,-5.54
7,C22G U87G G113U A119G G127C,-4.58
8,C22G G45A U54A A95C C114U,-5.19
9,C22U C72U,-3.69
10,C22U A37U,-4.82
11,C22U G61C,-4.87
12,C22A A111C,-4.49
13,C22G C53U,-4.09
14,C22G G44U U109G G110C,-5.8
15,U21G A37G G61A G135U,-2.33
16,C22G C49A G127A U129G,-4.21
17,C22U C40U G57U,-5.18
18,C22A C70G A111C G113C,-6.22
19,U21C G45C C56U U109A A111U C124G,-4.35
20,C22G C31A U92C U96A A111U,-5.09
21,C22U A24G G47A U54A G57A G61A U81A,-6.51

row,Variant,polymerase ribozyme fitness (log ratio)
1,C22G G57A C124U,-2.07
2,U21C G63C,-0.656
3,C22G C56U C88U A91C,-4.75
4,C22U A46U G69U G117A,-4.33
5,C22G G44C,-4.3
6,C22G G44U,-4.12
7,C22G C49U G110C,-5.9
8,U21G G71U,-2.37
9,C22G A29C C89A G120C,-6.79
10,U21C C72G A90C,-1.98
11,C22A G60A U96A U130C,-4.99
12,C22A G52A C124U,-4.37
13,U21G C72A A121U,0.876
14,C22U A121C,-3
15,U21C G57U,-0.235
16,C22G C56U,-3.32
17,C22G C49G A84U C86U,-4.89
18,U21G C40U U87G,-1.55
19,U21C G42A G52U C124A U125A,-1.88
20,U21C G52C G61A C82A,-0.816
21,C22A G36U C88U C115A,-5.17

row,Variant,polymerase ribozyme fitness (log ratio)
1,C22U G63C C88A U130C,-5.23
2,C22G C56A C64U C80G C101G U130A,-5.63
3,C22U A37G G61U U112C U126G G128A,-4.46
4,C22U A90G,-4.43
5,C22U G71C,-4.89
6,C22U G71A,-3.86
7,U21C G69A C104U,-2.28
8,C22U C86G A100C A121U,-4.27
9,C22U A26U A27U A41C G71C C82G A111C A118U G127C,-6.27
10,U21G G52A C102A C124U,-2.14
11,U21G C34A C49U C102G C114A,-8.62
12,C22G G60C,-3.23
13,C22G G60A,-3.33
14,U21C A46G C53A G71C C98U,-6.73
15,C22G A46G G60A G120A,-4.49
16,C22G U54A,-3.16
17,C22G G93A,-3.42
18,U21C C62U A83U U87G,0.103
19,C22G A90C U92C G120C,-3.7
20,U21C C49A A84U C88G C101G U133A,-2
21,U21G A46G G48U A100C C102A,-5.54
